Experimental data published in doi:10.1101/2020.03.27.012328 (bioRxiv, 2020).

Target: CID1R^ML (maximum likelihood reconstructed ancestral CID from the time of the first whole genome duplication)
Test: ITC

Kd: 2.9 ± 0.1 µM
B1: NCBDD/P of the ITC example in Figure S1e (label lost) (domain or fragment)
chain: TPPQALQQLLQTLKSPSSPQQQQQVLQILKSNPQLMAAFIKQRSQHQQ
